T1: B7H6 protein overexpressed in HL60 cells (human, UniProt Q68D85 25-454)
T1 construct: Full-length entry expressed from a lentiviral vector; also called HL60-B7H6
T1 sequence: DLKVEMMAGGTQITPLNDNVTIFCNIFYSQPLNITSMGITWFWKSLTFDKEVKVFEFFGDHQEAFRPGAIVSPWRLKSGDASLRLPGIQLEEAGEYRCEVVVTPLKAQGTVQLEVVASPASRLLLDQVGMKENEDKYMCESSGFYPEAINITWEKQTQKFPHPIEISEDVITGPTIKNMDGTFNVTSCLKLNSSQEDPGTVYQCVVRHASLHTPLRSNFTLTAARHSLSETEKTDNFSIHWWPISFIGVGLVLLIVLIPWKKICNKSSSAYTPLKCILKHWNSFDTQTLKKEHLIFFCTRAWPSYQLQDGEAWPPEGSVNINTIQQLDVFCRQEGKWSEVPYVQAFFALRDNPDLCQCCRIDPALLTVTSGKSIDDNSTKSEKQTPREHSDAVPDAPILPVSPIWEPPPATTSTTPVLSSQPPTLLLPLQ


Assays:
[1] = target: T2, recombinant B7H6 extracellular region Fc fusion protein (human); test: ELISA, B7H6-Fc coated at 1 ug/mL, HRP mouse anti-human IgG (Fab-specific) secondary antibody, OD450
T2 construct: also called B7H6-Fc; B7H6-Fc fusion protein
Method: The ELISA assay was used to detect the binding characteristics of the humanized B7H6 antibody. The B7H6 extracellular region Fc fusion protein (B7H6-Fc) described above was coated into a 96-well plate. The signal strength after antibody addition was used to determine the binding characteristics of antibodies and B7H6.
The B7H6-Fc fusion protein (amino acid sequence as set forth in SEQ ID NO. 22) was diluted to 1 μg/mL with PBS buffer and added to a 96-well plate in a volume of 100 μL/well and left overnight at 4° C. The PBS buffer solution was sucked off from the 96-well plate. The plate was washed 6 times with PBST (pH 7.2, PBS containing 0.1% Tween 20) buffer solution. 200 μL/well PBS/10% BSA was added and incubated at 37° C. for 2 hours for blocking. The blocking solution was removed. The plate was washed 6 times with PBST. B7H6 antibody to be tested which diluted with PBST/0.05% BSA to an appropriate concentration was added at 100 µL/well, and incubated at 37° C. for 1 h. The reaction system was removed. The plate was washed 6 times with PBST. HRP (horseradish peroxidase)-labeled mouse anti-human IgG (Fab-specific) secondary antibody (Sigma) was diluted with PBST/0.05% BSA at 100 μL/well and incubated for 1 h at 37° C. The plate was washed 6 times with PBST, and 80 μL/well TMB (tetramethylbenzidine) was added. […] The absorbance at […] was read with a microplate reader.

[2] = target: T1, B7H6 protein overexpressed in HL60 cells; test: flow cytometry on HL60-B7H6 cells, Alexa-647 mouse anti-human IgG-Fc secondary antibody, binding ratio (%)
Method: The flow cytometry assay was used to detect the binding characteristics of the B7H6 antibody. The B7H6 protein (HL60-B7H6) was overexpressed in HL60 cells (ATCC No. CCL-240) (as shown in Example 3), and the signal strength after antibody addition was used to determine the binding characteristics of the antibody and B7H6.
HL60-B7H6 cells were diluted to 2×10⁶/mL with PBS and added to a 1.5 mL EP tube in a volume of 100 μL/tube. 10 μL/tube of mouse serum was added thereto and was blocked at 4° C. for 30 min. The humanized B7H6 antibody was added at 1 μg/tube and incubated for 30 min at 4° C. The EP tube was added with 1 mL of PBS and centrifuged at 3500 rpm at 4° C. for 5 min. The supernatant was discarded and the precipitate was washed once more with PBS. After centrifugation, the supernatant was discarded. The cells were resuspended with 100 μL/tube of PBS, 1 μL/tube of Alexa-647-labeled mouse anti-human IgG-Fc secondary antibody (Biolegend) was added thereto, and incubated at 4° C., under the condition of avoiding light, for 30 min. The cell-containing precipitate was washed twice with PBS and the supernatant was discarded after centrifugation. The cells were resuspended with 200 μL/tube of PBS and detected by flow cytometry.

[3] = target: T2, recombinant B7H6 extracellular region …; test: ELISA, B7H6-Fc coated at 1 ug/mL, HRP anti-mouse secondary antibody, OD450
Method: The ELISA assay was used to detect the binding characteristics of the B7H6 antibody. The B7H6 extracellular region Fc fusion protein (B7H6-Fc) described above was coated into a 96-well plate. The signal strength after antibody addition was used to determine the binding characteristic of the antibody and B7H6.
The B7H6-Fc fusion protein (amino acid sequence as set forth in SEQ ID NO. 22) was diluted to 1 μg/mL with PBS buffer and added to a 96-well plate in a volume of 100 μL/well and left overnight at 4° C. The PBS buffer solution was sucked off from the 96-well plate. The plate was washed 6 times with PBST (pH 7.2, PBS containing 0.1% Tween 20) buffer solution. 200 μL/well PBS/10% BSA was added and incubated at 37° C. for 2 hours for blocking. The blocking solution was removed. The plate was washed 6 times with PBST. 100 μL/well B7H6 antibody to be tested was diluted to an appropriate concentration with PBST/0.05% BSA, and incubated at 37° C. for 1 h. The reaction system was removed. The plate was washed 6 times with PBST. HRP (horseradish peroxidase)-labeled anti-mouse antibody secondary antibody was diluted with PBST/0.05% BSA at 100 μL/well and incubated for 1 h at 37° ° C. The plate was washed 6 times with PBST and 80 μL/well TMB (tetramethylbenzidine) was added. […] The absorbance at […] was read with a microplate reader.

[4] = target: T2, recombinant B7H6 extracellular region …; test: SPR, Biacore T200, B7H6-Fc amine-coupled to CM5 chip, antibody injected, 1:1 Langmuir model; murine 12F5
Method: (§1) The Biacore method is widely-recognized as an objective method for detecting the mutual affinity and binding kinetics of proteins. The affinity and binding kinetics of the B7H6 antibody of the present disclosure are analyzed and characterized through Biacore T200.
(§2) The B7H6 extracellular segment Fc fusion protein (B7H6-Fc) was covalently attached to a CM5 (GE) chip using standard amino coupling methods. A series of concentration gradients of B7H6 antibody diluted in PBS were then injected with each cycle and regenerated with 10 mM NaOH solution. The antigen-antibody binding kinetics were traced for 3 minutes and the dissociation kinetics were traced for 10 minutes, and the resulting data were analyzed by a 1:1 (Langmuir) binding model using GE's BIAevaluation software.

[5] = target: T1, B7H6 protein overexpressed in HL60 cells; test: flow cytometry on HL60-B7H6 cells, Alexa-647 goat anti-mouse secondary antibody, binding ratio (%)
Method: The flow cytometry assay was used to detect the binding characteristics of B7H6 antibody and to overexpress B7H6 protein (HL60-B7H6, SEQ ID NO. 21; SEQ ID NO. 54) in HL60 cells (ATCC NO. CCL-240). The expression vector is pLVX-EF1a-B7H6-IRES-ZsGreen, and the signal strength after antibody addition is used to determine the binding characteristics of the antibody and B7H6.
HL60-B7H6 cells were diluted to 2×10⁶/mL with PBS and were added to a 1.5 ml EP tube at 100 μL/tube. Goat serum at 10 μL/tube was added thereto and was blocked at 4° C. for 30 min. The B7H6 antibody was added at 1 μg/tube and incubated for 30 min at 4° C. The EP tube was added with 1 mL of PBS and centrifuged at 3500 rpm at 4° C. for 5 min. The supernatant was discarded and the precipitate was washed once more with PBS. After centrifugation, the supernatant was discarded, and the cells were resuspended with 100 μl/tube of PBS, and 0.1 μL/tube of goat anti-mouse antibody secondary antibody (Invitrogen) labeled with Alexa-647 was added thereto, and incubated at 4° C., under the condition of avoiding light, for 30 min. The cell-containing precipitate was washed twice with PBS and the supernatant was discarded after centrifugation. The cells were resuspended with 200 μL/tube of PBS and detected by flow cytometry.

[6] = target: T3, recombinant Cynomolgus monkey B7H6 extracellular region Fc fusion protein (Cynomolgus monkey); test: ELISA, cynoB7H6-Fc coated at 1 ug/mL, HRP mouse anti-human IgG (Fab-specific) secondary antibody, OD450
T3 construct: also called cynoB7H6-Fc; cynoB7H6-Fc fusion protein
Method: The ELISA assay was used to detect the binding characteristics of the humanized B7H6 antibody. The Cynomolgus monkey B7H6 extracellular Fc fusion protein (cynoB7H6-Fc) was coated into a 96-well plate. The signal strength after antibody addition was used to determine the binding characteristics of the antibody and monkey B7H6.
The cynoB7H6-Fc fusion protein (amino acid sequence as set forth in SEQ ID NO. 23) was diluted to 1 μg/mL with PBS buffer and added to a 96-well plate in a volume of 100 μL/well and left overnight at 4° C. The PBS buffer solution was sucked off from the 96-well plate. The plate was washed 6 times with PBST (pH 7.2, PBS containing 0.1% Tween 20) buffer solution. 200 μL/well of PBS/10% BSA was added and incubated at 37° C. for 2 hours for blocking. The blocking solution was removed. The plate was washed 6 times with PBST. B7H6 antibody to be tested which was diluted with PBST/0.05% BSA to an appropriate concentration was added at 100 µL/well, and incubated at 37° C. for 1 h. The reaction system was removed. The plate was washed 6 times with PBST. HRP (horseradish peroxidase)-labeled mouse anti-human IgG (Fab-specific) secondary antibody (Sigma) was diluted with PBST/0.05% BSA at 100 μL/well and incubated for 1 h at 37° C. […] The absorbance at […] was read with a microplate reader.

[7] = target: T2, recombinant B7H6 extracellular region …; test: SPR, Biacore T200, B7H6-Fc amine-coupled to CM5 chip, antibody injected, 1:1 Langmuir model; murine 12G4
Method: as §1, §2

T3 sequence (chain, as listed by the source limits assumed): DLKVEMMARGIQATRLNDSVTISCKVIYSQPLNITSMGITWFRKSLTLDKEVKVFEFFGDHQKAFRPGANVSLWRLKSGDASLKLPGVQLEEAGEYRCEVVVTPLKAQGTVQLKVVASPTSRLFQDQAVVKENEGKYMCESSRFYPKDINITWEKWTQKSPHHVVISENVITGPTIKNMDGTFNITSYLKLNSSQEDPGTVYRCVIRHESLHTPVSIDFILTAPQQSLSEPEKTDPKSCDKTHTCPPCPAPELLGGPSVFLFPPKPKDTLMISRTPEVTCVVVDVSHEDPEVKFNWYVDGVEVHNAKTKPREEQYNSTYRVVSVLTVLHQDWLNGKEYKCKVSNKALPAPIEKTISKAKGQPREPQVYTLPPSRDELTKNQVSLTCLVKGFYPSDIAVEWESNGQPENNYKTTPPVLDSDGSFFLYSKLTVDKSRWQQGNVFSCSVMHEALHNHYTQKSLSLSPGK

Row | Binder | EC50 (read off the curve) [1] | EC50 (read off the curve) [2] | EC50 (read off the curve) [3] | Kd [4] | EC50 (read off the curve) [5] | binding result [6] | Kd [7]
1 | murine antibody 12F5 (antibody, mouse IgG2a, kappa, V domains shown, also called murine 12F5; B7H6 murine 12F5 antibody) VH: QVQLQQSGAELVKPGASVKLSCKASGYTFTSYYMYWVKQRPGQGLEWIGEINPSNGGTNFNEKFKSKATLTVDKSSSTAYMQLSSLTSEDSAVYYCTRTLYYGNDWYFDVWGAGTTVTVSS VL: QIVLTQSPAIMSASPGEKVTMTCSASSSVNYMHWYQQKSGTSPKRWIYDTSKLASGVPARFSGSGSGTSYSLTISSMEAEDAATYYCQQWSSNPVTFGAGTKLELKR |  |  | ~0.03 µg/mL | 2.2 nM | ~0.006 µg/mL |  | 
2 | humanized antibody h12G4 (antibody, human IgG1, kappa, V domains shown, also called humanized 12G4) VH: EVQLVQSGAEVKKPGASVKVSCKASGYTFTDYNMDWVRQAPGKGLEWIGDINPNNGGTLYNQKFRGRVTLTVDKSISTAYMELSRLRSDDTAVYYCARSEVFYGNYADYWGQGTTVTVSS VL: DIVLTQTPLSLSVTPGQPASISCKASQSVDYDGDSYMNWYLQKPGQPPQLLIYAASTLHSGVPDRFSGSGSGTDFTLKISRVEAEDVGVYYCQQSKEDPRTFGQGTKLEIKR | ~0.05 µg/mL | ~0.05 µg/mL |  |  |  | binds | 

The next lines start with the values.

Row | EC50 (read off the curve) [1] | EC50 (read off the curve) [2] | EC50 (read off the curve) [3] | Kd [4] | EC50 (read off the curve) [5] | binding result [6] | Kd [7] | Binder
3 | ~0.02 µg/mL | ~0.03 µg/mL |  |  |  |  |  | humanized antibody h12F5 (antibody, human IgG1, kappa, V domains shown, also called humanized 12F5) VH: EVQLVQSGAEVKKPGASVKVSCKASGYTFTSYYMYWVRQAPGQGLEWIGEINPSNGGTNFNEKFKSRVTLTVDKSISTAYMELSRLRSDDTAVYYCTRTLYYGNDWYFDVWGQGTTVTVSS VL: EIVLTQSPDFQSVTPKEKVTITCSASSSVNYMHWYQQKPDQSPKRLIYDTSKLASGVPSRFSGSGSGTDYTLTINSLEAEDAATYYCQQWSSNPVTFGQGTKLEIKR
4 |  |  | ~0.03 µg/mL |  | ~0.01 µg/mL |  | 0.15 nM | murine antibody 12G4 (antibody, mouse IgG2a, kappa, V domains shown, also called murine 12G4) VH: EVLLQQSGPEVVKPGASVKITCKASGYTFTDYNMDWVKQSHGKSLEWIGDINPNNGGTLYNQKFRGRVTLIVDKSSSTAYMELRSLTSDDTAVYYCARSEVFYGNYADYWGQGTTLTVSS VL: DIVLTQSPVSLAVPLGQRATISCKASQSVDYDGDSYMNWYQQKPGQPPKLLIYAASTLHSGIPVRFSGSGSGTDFTLNIHPVEEEDAASYYCQQSKEDPRTFGGGTKLEIKR

From patent US20240190968A1 (HEFEI TG IMMUNOPHARMA, published 2024)
